Test results as given in the supplement of paper PMC9876800.

Test system: peptide library, one residue held at a place counted from the S/T acceptor
Assay: relative phosphorylation of the sub-library (ratio to the mean residue at this position); higher = residue favoured
Conditions: human
Procedure, shortened: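 Relative sub-library phosphorylation, a ratio to the mean residue at that position, was obtained by phosphorimaging and densitometry of spots on streptavidin membranes. Before capture, purified recombinant kinases were incubated for 90 min under kinase-specific conditions with 50 μM biotinylated degenerate peptide sub-libraries and 50 μM ATP spiked with γ-32P-ATP. Each sub-library fixed one residue at one position around a central Ser/Thr.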

TAOK2, construct: aa1-350, sequence (Q9UL54 1-350, looked up): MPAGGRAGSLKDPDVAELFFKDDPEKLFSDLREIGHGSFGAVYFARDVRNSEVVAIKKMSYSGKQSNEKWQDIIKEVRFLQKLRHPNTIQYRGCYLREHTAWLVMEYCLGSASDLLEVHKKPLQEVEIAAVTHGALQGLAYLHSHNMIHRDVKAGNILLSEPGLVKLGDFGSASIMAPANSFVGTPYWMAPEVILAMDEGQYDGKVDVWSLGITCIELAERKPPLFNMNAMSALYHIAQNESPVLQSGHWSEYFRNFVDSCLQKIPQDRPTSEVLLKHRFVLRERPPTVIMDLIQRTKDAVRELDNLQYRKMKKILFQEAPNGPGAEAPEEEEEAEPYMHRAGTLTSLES
SNRK, construct: aa1-505, sequence (Q9NRH2 1-505, looked up): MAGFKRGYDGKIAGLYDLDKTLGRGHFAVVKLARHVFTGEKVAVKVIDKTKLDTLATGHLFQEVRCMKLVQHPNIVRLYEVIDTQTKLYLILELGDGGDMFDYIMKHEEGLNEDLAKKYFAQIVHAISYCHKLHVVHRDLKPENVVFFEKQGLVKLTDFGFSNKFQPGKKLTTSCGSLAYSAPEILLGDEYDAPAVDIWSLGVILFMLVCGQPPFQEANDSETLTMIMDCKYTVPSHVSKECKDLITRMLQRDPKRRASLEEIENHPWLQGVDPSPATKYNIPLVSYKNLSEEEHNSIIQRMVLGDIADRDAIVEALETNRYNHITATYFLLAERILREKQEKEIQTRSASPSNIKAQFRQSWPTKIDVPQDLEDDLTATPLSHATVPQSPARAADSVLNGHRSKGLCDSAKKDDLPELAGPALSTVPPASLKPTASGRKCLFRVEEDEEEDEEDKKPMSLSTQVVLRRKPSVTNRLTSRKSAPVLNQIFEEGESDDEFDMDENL
LRRK2, construct: aa960-end, sequence (Q5S007 960-2527, looked up): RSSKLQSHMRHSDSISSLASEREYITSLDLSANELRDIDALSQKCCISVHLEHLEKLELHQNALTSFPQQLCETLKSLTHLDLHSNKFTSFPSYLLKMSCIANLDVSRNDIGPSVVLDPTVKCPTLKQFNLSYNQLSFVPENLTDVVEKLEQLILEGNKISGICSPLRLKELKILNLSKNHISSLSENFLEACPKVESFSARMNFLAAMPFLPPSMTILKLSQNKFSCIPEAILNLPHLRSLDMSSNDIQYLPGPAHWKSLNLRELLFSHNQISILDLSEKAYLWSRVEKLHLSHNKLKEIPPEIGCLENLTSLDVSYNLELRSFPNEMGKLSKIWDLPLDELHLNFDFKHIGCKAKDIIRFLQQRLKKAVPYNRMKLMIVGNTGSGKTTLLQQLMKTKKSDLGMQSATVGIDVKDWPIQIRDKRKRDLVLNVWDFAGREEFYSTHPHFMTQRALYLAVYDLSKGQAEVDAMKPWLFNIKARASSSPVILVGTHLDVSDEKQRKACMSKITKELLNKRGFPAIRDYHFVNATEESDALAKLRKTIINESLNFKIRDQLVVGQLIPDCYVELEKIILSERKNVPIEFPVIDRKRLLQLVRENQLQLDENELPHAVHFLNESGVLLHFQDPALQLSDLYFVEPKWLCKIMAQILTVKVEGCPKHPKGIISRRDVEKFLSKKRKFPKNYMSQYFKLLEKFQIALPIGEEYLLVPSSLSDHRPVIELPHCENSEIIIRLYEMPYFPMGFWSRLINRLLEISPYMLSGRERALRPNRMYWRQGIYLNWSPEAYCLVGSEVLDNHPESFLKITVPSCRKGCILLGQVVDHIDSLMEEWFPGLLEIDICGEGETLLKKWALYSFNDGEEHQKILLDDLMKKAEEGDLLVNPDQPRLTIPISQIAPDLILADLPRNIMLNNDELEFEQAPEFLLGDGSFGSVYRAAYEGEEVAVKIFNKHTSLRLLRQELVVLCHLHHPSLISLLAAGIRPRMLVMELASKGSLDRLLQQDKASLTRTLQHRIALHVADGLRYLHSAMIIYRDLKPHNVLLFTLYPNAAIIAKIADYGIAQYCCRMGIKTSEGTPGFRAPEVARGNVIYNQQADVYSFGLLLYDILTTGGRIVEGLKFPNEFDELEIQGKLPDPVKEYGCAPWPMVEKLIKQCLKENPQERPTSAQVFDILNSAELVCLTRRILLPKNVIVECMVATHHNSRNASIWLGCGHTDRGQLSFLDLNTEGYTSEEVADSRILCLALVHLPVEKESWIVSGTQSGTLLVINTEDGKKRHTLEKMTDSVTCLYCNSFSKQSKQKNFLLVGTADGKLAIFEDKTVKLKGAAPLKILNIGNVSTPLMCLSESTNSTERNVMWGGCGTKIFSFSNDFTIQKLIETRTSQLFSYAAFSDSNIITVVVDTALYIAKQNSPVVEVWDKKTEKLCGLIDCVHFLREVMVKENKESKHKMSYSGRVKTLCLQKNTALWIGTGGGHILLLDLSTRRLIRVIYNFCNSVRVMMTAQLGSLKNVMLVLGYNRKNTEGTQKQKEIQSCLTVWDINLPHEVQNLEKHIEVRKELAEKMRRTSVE
IRAK4, construct: aa104-end, sequence (Q9NWZ3 104-460, looked up): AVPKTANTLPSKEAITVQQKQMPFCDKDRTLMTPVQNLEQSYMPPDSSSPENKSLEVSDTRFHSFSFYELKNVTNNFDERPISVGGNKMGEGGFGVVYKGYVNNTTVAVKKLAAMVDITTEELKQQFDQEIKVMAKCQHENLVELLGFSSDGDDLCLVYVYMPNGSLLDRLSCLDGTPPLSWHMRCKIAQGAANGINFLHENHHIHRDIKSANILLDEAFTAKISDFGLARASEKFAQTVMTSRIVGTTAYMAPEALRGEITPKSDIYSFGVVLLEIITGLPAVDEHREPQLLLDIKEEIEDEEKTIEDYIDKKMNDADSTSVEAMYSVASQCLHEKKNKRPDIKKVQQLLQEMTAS

TAOK2, construct: aa1-350 (from UniProt Q9UL54)
relative phosphorylation
Conditions	at +1	at +2	at +3	at +4	at -1	at -2	at -3	at -4	at -5
A fixed	0.607	0.791	0.808	0.75	0.832	0.94	0.901	0.992	1.03
D fixed	0.505	0.606	0.532	0.619	0.726	0.706	0.741	0.931	1.01
E fixed	0.496	0.483	0.501	0.593	0.566	0.621	0.725	0.92	0.888
F fixed	1.23	0.651	0.845	0.887	0.938	1.4	0.806	0.907	0.896
G fixed	0.606	0.697	0.953	0.937	1.45	1.13	1.34	1.14	1.13
H fixed	0.855	0.993	0.924	1.04	1.28	1.01	1.06	1.08	1.06
I fixed	1.47	0.723	0.761	0.763	0.561	0.703	0.642	0.746	0.73
K fixed	0.753	2.65	2	1.72	1.11	0.981	2.14	1.46	1.45
L fixed	1.49	0.644	0.807	0.778	1.1	0.709	0.672	0.781	0.767
M fixed	1.49	0.734	0.735	0.764	1.26	0.978	0.828	0.857	0.827
N fixed	0.64	1.24	0.876	0.845	1.16	0.972	0.944	1.1	1.05
P fixed	0.589	0.76	0.906	0.834	0.667	0.876	0.777	0.965	0.969
Q fixed	0.727	0.884	0.838	0.949	0.851	0.896	1	1.01	0.977
R fixed	0.778	2.81	2.84	2.19	1.27	1.1	1.59	1.28	1.38
V fixed	1.09	0.812	0.753	0.738	0.583	0.731	0.672	0.818	0.889
W fixed	2.32	0.69	1.04	1.35	1.1	1.08	1.02	1	0.986
Y fixed	1.35	0.835	0.873	1.24	1.54	2.16	1.13	1.01	0.96
pThr fixed	0.639	0.557	0.614	0.55	0.605	0.742	0.817	0.964	1
pTyr fixed	0.577	0.54	0.626	0.609	1.27	0.822	0.909	1.03	1.1

IRAK4, construct: aa104-end (from UniProt Q9NWZ3)
relative phosphorylation
Conditions	at +1	at +2	at +3	at +4	at -1	at -2	at -3	at -4	at -5
A fixed	1	0.837	0.672	0.783	0.78	1.05	0.954	1.13	1.15
D fixed	0.163	0.147	0.24	0.423	0.303	0.404	0.555	0.603	0.602
E fixed	0.314	0.164	0.217	0.405	0.247	0.405	0.507	0.619	0.554
F fixed	1.05	1.27	1.4	0.77	0.886	0.903	0.885	0.97	0.895
G fixed	1.13	0.45	0.698	0.935	0.636	1.31	1.36	1.22	1.29
H fixed	1.07	1.13	1.49	1.26	1.28	1.06	1.05	1.01	1.15
I fixed	0.92	1.42	1.33	0.897	0.774	0.842	0.755	0.742	0.89
K fixed	1.94	1.43	1.56	1.89	2.3	1.23	1.53	1.46	1.52
L fixed	0.83	1.05	1.24	0.85	0.877	1.23	0.935	0.852	0.774
M fixed	1.2	1.16	1.15	1.01	1	1.57	1.03	0.907	0.837
N fixed	0.705	0.669	0.651	1.04	1	1.14	1.1	1.14	0.997
P fixed	0.139	0.406	0.252	0.961	0.666	1.04	1.11	1.12	1.22
Q fixed	1.34	0.862	0.919	0.983	0.973	0.979	0.964	0.864	0.866
R fixed	2.58	1.99	1.76	1.83	2.31	1.34	1.65	1.5	1.59
V fixed	1.08	1.47	1.18	0.778	0.942	0.811	0.775	0.891	0.812
W fixed	0.778	1	1.11	1.25	0.755	0.814	0.968	1.01	0.881
Y fixed	0.755	1.53	1.12	0.942	1.26	0.878	0.864	0.957	0.966
pThr fixed	0.276	0.274	0.341	0.33	0.352	0.678	0.866	0.752	0.87
pTyr fixed	0.203	0.177	0.441	0.323	0.276	0.545	0.65	0.539	0.763

LRRK2, construct: aa960-end (from UniProt Q5S007)
relative phosphorylation
Conditions	at +1	at +2	at +3	at +4	at -1	at -2	at -3	at -4	at -5
A fixed	0.869	0.867	0.909	0.908	0.82	1.05	0.893	0.985	1.01
D fixed	0.525	0.559	0.696	0.691	0.639	0.516	0.675	0.685	0.698
E fixed	0.546	0.451	0.595	0.673	0.517	0.477	0.662	0.719	0.741
F fixed	0.874	1.17	0.884	1	0.94	1.95	1.05	1.23	1.09
G fixed	0.82	0.826	0.894	0.966	1.17	1.18	1.06	1.06	0.993
H fixed	0.814	1.02	1.16	1.18	1.15	1.18	1.08	0.949	1.04
I fixed	0.996	0.834	0.649	0.934	0.482	0.684	0.74	0.758	0.906
K fixed	1.91	1.44	1.82	1.39	1.76	0.755	1.43	1.12	1.08
L fixed	1.15	0.786	0.755	0.865	0.812	0.943	0.85	0.842	0.858
M fixed	1.08	0.952	0.776	0.949	0.969	1.35	0.974	0.957	1.05
N fixed	0.977	0.943	1.12	1.12	1.03	0.799	0.881	0.805	0.83
P fixed	0.941	0.724	0.822	0.794	0.88	0.943	1.01	1.1	0.989
Q fixed	1.07	0.709	0.946	1.02	0.765	0.73	0.83	0.821	0.813
R fixed	1.88	2.91	2.3	1.45	1.97	0.994	2.07	1.4	1.37
V fixed	0.777	0.83	0.741	0.79	0.553	0.658	0.723	0.846	0.971
W fixed	0.857	0.908	1.05	1.09	0.879	1.28	0.996	1.65	1.47
Y fixed	0.916	1.07	0.885	1.17	1.65	1.51	1.07	1.08	1.1
pThr fixed	0.67	0.672	0.925	0.822	0.54	0.782	0.822	0.859	0.932
pTyr fixed	0.759	0.688	0.9	0.868	0.709	0.754	0.909	0.892	1.18

SNRK, construct: aa1-505 (from UniProt Q9NRH2)
relative phosphorylation
Conditions	at +1	at +2	at +3	at +4	at -1	at -2	at -3	at -4	at -5
A fixed	0.817	0.313	0.573	0.725	0.876	1.27	0.886	1.12	1.07
D fixed	0.421	0.215	0.614	0.532	0.73	0.301	0.279	0.572	0.568
E fixed	0.544	0.156	0.303	0.474	0.899	0.344	0.267	0.65	0.514
F fixed	1.81	3.56	2.34	1.08	0.944	1.31	0.898	0.944	1.27
G fixed	0.424	0.196	0.608	0.721	0.813	0.721	0.617	1.06	0.957
H fixed	0.863	0.998	1.16	0.969	1.1	1.47	1.04	1.15	1.1
I fixed	0.829	0.912	0.61	1.16	0.811	0.587	0.631	0.861	0.921
K fixed	1.09	0.431	0.691	1	1.06	1.12	1.99	1.42	1.31
L fixed	1.05	1.36	0.88	1.78	1.3	0.616	0.9	0.94	0.815
M fixed	1.4	1.34	0.934	1.18	1.31	0.91	0.979	1.03	0.937
N fixed	0.916	0.5	1.11	0.965	0.864	1.11	0.654	0.824	0.883
P fixed	0.171	0.276	0.354	1.02	0.823	0.426	0.613	0.748	0.807
Q fixed	1.35	0.567	0.661	1.16	1.08	1.14	0.908	0.942	0.89
R fixed	1.63	0.865	1.1	1.06	1.45	2.44	4.04	1.5	1.69
V fixed	0.936	0.585	0.531	0.924	0.93	0.78	0.498	0.911	0.996
W fixed	1.27	2.4	2.19	1.29	0.964	1.11	0.952	1.18	1.23
Y fixed	1.48	2.32	2.35	0.952	1.05	1.34	0.85	1.15	1.05
pThr fixed	0.702	0.42	0.371	0.477	0.913	0.613	0.526	0.7	0.726
pTyr fixed	0.777	0.522	0.548	0.425	1.03	0.512	0.522	0.735	0.73
